Values joined by “and” are separate entries in the source; they are usually repeats but may differ in a detail not shown here. Equal values may be shown once. Values belong to the substance of their own block, whether it stands above or below them.
Key:
[1] = biological target: Ce^2–184-Sp^140–152 chimera•Gemin2 (Caenorhabditis elegans | Schizosaccharomyces pombe | not stated) (UniProt Q09808); assay: SEC-MALS; Superdex 200 10/300 GL, 0.5 ml/min, room temperature (20°C), 50 mM HEPES-NaOH pH 7.5, 250 mM NaCl, 5 mM DTT; self-association of the SMN•G2 unit, (SMN•G2)n
[2] = biological target: SMN (SMN•Gemin2 dimer) (Schizosaccharomyces pombe) (UniProt Q09808); settings: cited from earlier work
[3] = biological target: Sp^1–117-Hs^253–294 chimera•Gemin2 (Schizosaccharomyces pombe | human | not stated) (UniProt Q09808); assay: SEC-MALS; Superdex 200 10/300 GL, 0.5 ml/min, room temperature (20°C), 50 mM HEPES-NaOH pH 7.5, 250 mM NaCl, 5 mM DTT; self-association of the SMN•G2 unit, (SMN•G2)n
hsSMNΔ5(G275S)•Gemin2 = hsSMNΔ5(G275S)•Gemin2 (UniProt O14893); assay: SEC-MALS; settings: 20°C; peak concentration 0.5 µM; parent: 231 (188-454)
hsSMNΔ5(G279C)•Gemin2 = assay: SEC-MALS; settings: 20°C; peak concentration 0.5 µM; parent: 231 (188-454)
[4] = biological target: hsSMNΔ5(L260S)•Gemin2, Q16637;O14893; assay: SEC-MALS; settings: 20°C; peak concentration 0.3 µM; parent: 231 (188-454)
[5] = biological target: hsSMNΔ5(M263R)•Gemin2, Q16637;O14893; assay: SEC-MALS; settings: 20°C; peak concentration 0.8 µM; parent: 231 (188-454)
[6] = biological target: hsSMNΔ5(M263T)•Gemin2, Q16637;O14893; assay: SEC-MALS; settings: 20°C; peak concentration 0.5 µM; parent: 231 (188-454)
hsSMNΔ5(S262G)•Gemin2 = assay: SEC-MALS; settings: 20°C; peak concentration 0.3 µM; parent: 231 (188-454)
hsSMNΔ5(S262I)•Gemin2 = assay: SEC-MALS; settings: 20°C; peak concentration 0.5 µM; parent: 231 (188-454)
hsSMNΔ5(S266P)•Gemin2 = assay: SEC-MALS; settings: 20°C; peak concentration 0.2 µM; parent: 231 (188-454)
[7] = biological target: hsSMNΔ5(Y272C)•Gemin2, Q16637;O14893; assay: SEC-MALS; settings: 20°C; peak concentration 0.8 µM; parent: 231 (188-454)
[8] = biological target: spSMN-GCN4(IL) chimera•Gemin2 (Schizosaccharomyces pombe | S. cerevisiae) (UniProt P0CU08); assay: SEC-MALS + AUC + other: SAXS; spSMN-GCN4 fusions in complex with Gemin2; SEC-MALS, SV-AUC and SAXS named together

Chain of hsSMNΔ5•Gemin2 complex (from UniProt O14893) Y272C (Q16637 whole entry Y272C, stated change not applied): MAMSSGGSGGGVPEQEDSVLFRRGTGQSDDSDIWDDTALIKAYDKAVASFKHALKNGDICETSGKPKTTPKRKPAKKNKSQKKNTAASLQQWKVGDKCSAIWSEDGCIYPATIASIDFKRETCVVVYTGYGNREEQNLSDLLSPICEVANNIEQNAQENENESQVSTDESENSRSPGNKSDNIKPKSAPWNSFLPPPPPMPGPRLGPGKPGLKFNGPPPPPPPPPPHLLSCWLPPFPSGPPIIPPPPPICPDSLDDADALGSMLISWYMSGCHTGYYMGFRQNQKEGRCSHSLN
Chain of hsSMNΔ5•Gemin2 complex (from UniProt O14893) Y272C (O14893 12-280, stated change not applied): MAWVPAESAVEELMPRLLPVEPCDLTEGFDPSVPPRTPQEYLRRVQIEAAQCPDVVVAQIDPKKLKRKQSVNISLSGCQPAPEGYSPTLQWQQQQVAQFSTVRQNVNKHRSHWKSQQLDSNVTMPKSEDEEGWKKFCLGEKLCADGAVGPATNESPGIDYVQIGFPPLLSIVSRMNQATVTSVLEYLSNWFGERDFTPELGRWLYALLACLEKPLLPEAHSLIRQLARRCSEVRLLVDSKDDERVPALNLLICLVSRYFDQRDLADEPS
Chain of SMN (SMN•Gemin2 dimer) (Q09808 whole entry): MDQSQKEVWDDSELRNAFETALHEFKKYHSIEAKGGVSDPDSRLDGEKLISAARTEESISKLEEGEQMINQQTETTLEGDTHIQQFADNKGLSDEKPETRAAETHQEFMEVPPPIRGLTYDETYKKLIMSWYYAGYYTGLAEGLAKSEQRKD
Chain of hsSMNΔ5•Gemin2 complex (from UniProt O14893) M263T (Q16637 whole entry M263T, stated change not applied): as the sequence (Q16637 whole entry Y272C, stated change not applied) above, with M263T, C272Y counted along it
Chain of hsSMNΔ5•Gemin2 complex (from UniProt O14893) M263T (O14893 12-280, stated change not applied): as the sequence (O14893 12-280, stated change not applied) above
Chain of hsSMNΔ5•Gemin2 complex (from UniProt O14893) M263R (Q16637 whole entry M263R, stated change not applied): as the sequence (Q16637 whole entry Y272C, stated change not applied) above, with M263R, C272Y counted along it
Chain of hsSMNΔ5•Gemin2 complex (from UniProt O14893) M263R (O14893 12-280, stated change not applied): as the sequence (O14893 12-280, stated change not applied) above
Chain of hsSMNΔ5(G275S)•Gemin2 (O14893 whole entry, looked up, stated change not applied): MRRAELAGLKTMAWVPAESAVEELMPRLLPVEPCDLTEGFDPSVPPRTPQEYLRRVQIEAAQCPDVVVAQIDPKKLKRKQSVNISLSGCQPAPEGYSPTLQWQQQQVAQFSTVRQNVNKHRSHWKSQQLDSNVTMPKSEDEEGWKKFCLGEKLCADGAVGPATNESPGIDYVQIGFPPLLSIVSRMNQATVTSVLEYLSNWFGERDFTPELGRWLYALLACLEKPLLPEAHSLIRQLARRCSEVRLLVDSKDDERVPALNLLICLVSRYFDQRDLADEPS
Chain of hsSMNΔ5•Gemin2 complex (from UniProt O14893) S262I (O14893 whole entry, looked up, stated change not applied, one chain of several): as the sequence (O14893 whole entry, looked up, stated change not applied) above
Chain of hsSMNΔ5•Gemin2 complex (from UniProt O14893) G275S (O14893 whole entry, looked up, stated change not applied, one chain of several): as the sequence (O14893 whole entry, looked up, stated change not applied) above
Chain of hsSMNΔ5•Gemin2 complex (from UniProt O14893) G279C (O14893 whole entry, looked up, stated change not applied, one chain of several): as the sequence (O14893 whole entry, looked up, stated change not applied) above
Chain of hsSMNΔ5•Gemin2 complex (from UniProt O14893) S262G (O14893 whole entry, looked up, stated change not applied, one chain of several): as the sequence (O14893 whole entry, looked up, stated change not applied) above
Chain of hsSMNΔ5•Gemin2 complex (from UniProt O14893) S266P (O14893 whole entry, looked up, stated change not applied, one chain of several): as the sequence (O14893 whole entry, looked up, stated change not applied) above
Chain of hsSMNΔ5•Gemin2 complex (from UniProt O14893) L260S (Q16637 whole entry L260S, stated change not applied): as the sequence (Q16637 whole entry Y272C, stated change not applied) above, with L260S, C272Y counted along it
Chain of hsSMNΔ5•Gemin2 complex (from UniProt O14893) L260S (O14893 12-280, stated change not applied): as the sequence (O14893 12-280, stated change not applied) above
Chain of spSMN-GCN4(IL) chimera•Gemin2 (P0CU08 whole entry, looked up, change not shown): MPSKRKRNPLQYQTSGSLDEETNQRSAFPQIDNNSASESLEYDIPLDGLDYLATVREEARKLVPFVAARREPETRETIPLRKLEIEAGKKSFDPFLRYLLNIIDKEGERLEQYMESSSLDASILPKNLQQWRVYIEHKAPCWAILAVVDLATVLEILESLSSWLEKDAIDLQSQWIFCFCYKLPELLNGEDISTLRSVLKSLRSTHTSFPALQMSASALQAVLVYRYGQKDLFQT

Substance: SMN (SMN•Gemin2 dimer) (from UniProt Q09808)
Kd [2]: 1000 nM

Substance: Sp^1–117-Hs^253–294 chimera•Gemin2 (from UniProt Q09808 1-117; Q16637 253-294) (complex)
stoichiometry N [3]: 4 and 8

Substance: hsSMNΔ5•Gemin2 complex (from UniProt O14893) L260S
other: SEC-MALS Mw [4]: 124

Substance: hsSMNΔ5•Gemin2 complex (from UniProt O14893) M263R
other: SEC-MALS Mw [5]: 113

Substance: hsSMNΔ5•Gemin2 complex (from UniProt O14893) S262G
other: SEC-MALS Mw (hsSMNΔ5(S262G)•Gemin2): 275

Substance: hsSMNΔ5•Gemin2 complex (from UniProt O14893) S266P
other: SEC-MALS Mw (hsSMNΔ5(S266P)•Gemin2): 99

Substance: hsSMNΔ5•Gemin2 complex (from UniProt O14893) Y272C
other: SEC-MALS Mw [7]: 78

Further lines, results first:

stoichiometry N [1]: 2
Substance: Ce^2–184-Sp^140–152 chimera•Gemin2 (from UniProt Q09808 140-152) (complex)

other: SEC-MALS Mw (hsSMNΔ5(G275S)•Gemin2): 58
Substance: hsSMNΔ5•Gemin2 complex (from UniProt O14893) G275S

other: SEC-MALS Mw (hsSMNΔ5(G279C)•Gemin2): 586
Substance: hsSMNΔ5•Gemin2 complex (from UniProt O14893) G279C

other: SEC-MALS Mw [6]: 115
Substance: hsSMNΔ5•Gemin2 complex (from UniProt O14893) M263T

other: SEC-MALS Mw (hsSMNΔ5(S262I)•Gemin2): 306
Substance: hsSMNΔ5•Gemin2 complex (from UniProt O14893) S262I

stoichiometry N [8]: 2
Substance: spSMN-GCN4(IL) chimera•Gemin2 (from UniProt P0CU08 1-235) (complex)

— PMC8287954
